This note sets out measurements from patent US20100297047A1, “ESTERS OF GLYCEROL AND THEIR USES IN COSMETIC AND PHARMACEUTICAL APPLICATIONS” (BIOPHIL ITALIA S.P.A., priority 2007, published 2010).

A short description of this series: Solubilisation of poorly soluble active ingredients in the Olea europea triglycerides/diglycerides mixture. It is filed as physicochemical. From the text:
Improved formulations have been prepared by solubilising lipophilic ingredients, which are known for their interesting cosmetic activity but also for their difficult usage due to their poor solubility and/or dispersion into common cosmetic matrixes.
Ceramides are major components (roughly 40%) of the lipidic layers of the epidermis barrier, which drive the balance between hydration and loss of water, having the important role of “cement” between the corneocytes, i.e. the brick cells forming the dermal layers. The high difficulty for the application of ceramides in cosmetics is their poor solubility: in order to solubilise them into esters, a heating step above 90° C. is normally required with possible damage of the ceramides.
The use of triglycerides/diglycerides mixture as a solubiliser has allowed the solubilisation of ceramide-3 also at high concentration (up to 50%) without excessive and long time heating steps, A liquid ingredient, easy to use by simple addition into the lipid phase of the cosmetic formulation, has been obtained so far.
Sericin is one of the two families of proteins constituting the pure silk secreted by the silkworm glands: its dimensions vary from 60 up to 500 kDa. […]

Regarding sericin, the “dissolution of high molecular weight sericin” value (in mixtures of triglycerides/diglycerides from olive, compared with other commonly used vehicles or solubilisers) is “successfully dissolved”.

Regarding `CCCCCCCCCCCCCCCCCC(=O)N[C@@H](CO)[C@H](O)[C@H](O)CCCCCCCCCCCCCC` [ceramide-3], the “concentration at which ceramide-3 is solubilised” value (triglycerides/diglycerides mixture as solubiliser, without excessive and long time heating steps) is “up to 50%”.
